These results are taken from a protein production outcome set (Wang et al. 2014).

This data set is described as follows: label from the status in PepcDB records.
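Note: failed if final PepcDB status was selected cloned or expressed and not failed if soluble or beyond.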

Consider “MSRMRVLRLRLYGVVFLAVLALLLSLSVAVYQQVFTPAVRIKLEADSLGNQLDPRADVKLRGLLVGEVRAVHADGTKATLDIALKPEYVASIPSDAHARLLPKTLFGEKYVDLVAPARSSARPIRAGDVITQDRTRVGIELQQLMNDLLPLLRTVQPGKLNATLSAFATALEGRGDRIGDNLTRVEDYLHRLNPHLPSLTEDFARLADVAEVYGDAAPDLMEILRNTVTTSRTLVEQRDRLASALTTTATAAGTADDFLDANGDRLITLGRVSRPTLDLFARYSPEYPCLFAGLVREEQASEQAFRGGKMHITLEVVRQQGAYEPGEYPRYDDRSGPNCRDLPHPPVPAPGVHLNDGSTKGSASGGPGGVSATRAEQRSVGSLVAPVLGVPADQVPPVATLLFGPMARGTAVSVA”, for which the protein production result is “failed”.

As for “MSRPDQAARRRAIAAELHVSPTFDARDEAERRIGFVADYLRTAGLRACVLGISGGIDSSTAGRLAQLAVERLRASGYDARFVAMRLPYGAQHDEADARRALAFVRADETLTVDVKPAADAMLAALAAGGLAYLDHAQQDFVLGNIKARERMIAQYAVAGARNGVVIGTDHAAESVMGFFTKFGDGGADVLPLAGLTKRRVRALARMLGADEPLVLKTPTADLETLRPQRPDEHAYGITYEQIDDFLEGKPMDDAVAETVLRFYDATRHKRALPYTMFDWPGHPA”, the protein production result is recorded as “not failed”. With “MSRPEGHTLRRRLAGVVFVLVPALLIWLAVAVYDKKFTDSDPVVVETGSAGNQMHPGAEVKLRGVVVGEVRAIDATGDGARLTLAMKPGALDDVPSDVRAQMLPTTLFGERFVALVPPANPSPEPLAAGAVVPQDRSANAIELQQVLDDVLPMLTAVQPQKLSATLSAVSQALEGRGERLGDTLTLLDEHLAEFNPNLPALNRDLKELVKVSHVYADAAPDVITALTDFTTTSGTLAEQEADLAATLGATTRTAEDVTAFLHKNKDNIIRLGDTSRPTLELLAEYSPAFPCTLRTLAEFVPAMDKALGKGTDRPGIHVDVTSVASRGAYRPGRDTPVYDSGGGPRCPSVPYLGALPRPTARTAAPAAEQDLGPANSPQENDLVNELLAPAAGKSPGDLPDWSSLLVGPVYRGTEVTLGLEHHHHHH” the entry was “failed”. The value for “MSRPPVFPPPQFPPPRPRPFQRTPPAIFPPILGLLALGLGLRRAAEIWGLPAGLAEAVLGATTGLGAFAVAAYAAKVAQRPGVVIEDLRVLPGRAGLAALVLGLLVLAAVLVPYGPAAARAVLVAGLGLQTILAVTVAALLLSGPKEGRVVTPAFHLHFVGFIIGGLTAAPVGWPGLGTVLLAVCAPVAAAIWIASLVQFLRRVPPPPLRPLLAIHLAPAALLGLVAGQQELPLVAQLCAAAGGVLLLAFLASARWLLAGGFSPLWGALTFPLAAYAGLLLVVWPQAGAVLLAAAALVIPPIAAKILQEWAKGRLAVRTNAAQA” was “failed”. With “MSRQQARGALGRAWWLQLALALLPLILVEFFLGELQPLPHGLAMPLFIAALLSMFVNLPLFGAYKRGLIATQKALDTAEEAAAWTRLAQVRRKALFGASLPAWIGVPGVFAGLNGVALILLGVTSLVLFWLYRIPRQLG” the entry was “failed”; with “MSRRAPMFKPLPITLQRGALRLEPLVEADIPELVSLAEANREALQYMDGPTRPDWYRQSLAEQREGRALPLAVRLGVQLVGTTRFAEFLPALPACEIGWTWLDQAQHGSGLNRMIKYLMLKHAFDNLRMVRVQLSTAASNLRAQGAIDKLGAQREGVLRNHRRLAGGRLDDTFVYSITDHEWPQVKAALEASFTG”, “not failed”. In the case of “MSRRSNRTINLPAPYLKRIWLDPSQVHDREAYPFCLPIFPDDFELSFDAAITIIVGENGTGKSTILEGIAALAGYDDAGGGKGYMPVDHSDAREKMGGQLSKALRASWLPKITNGWFFRAESFFSVARYLDKAARDAGQVGPDFLSHSHGEGFLRFFEERCQRQGIFIFDEPESALSPARQIEFLKLLRRMDDSRICQVIMATHSPMLMAYPNAKLLRLGKYGLEPVTVEETDHYRLMREFCDDPRGFVEATLAELEHHHHHH”, the protein production result is recorded as “not failed”.

As to “MSRSGQPPDLKKYMDKKLQIKLNANRMVVGTLRGFDQFMNLVVDNTVEVNGDDKTDIGMVVIRGNSIVTVEALEPVGRS”, the protein production result is “failed”. With “MSRSLGIPVKLLHEASGHIVTVELKSGELYRGSMIECEDNWNCQLEDITYTAKDGKVSQLEHVFIRGSKVRFMVIPDILKHAPMFKRLDARIKGKSSSLGVGRGRGAMRGKPAAGPGRGTGGRGAVPPVRR” the entry was “failed”; with “MSRSVLQPSQQKLAEKLTILNDRGVGMLTRLYNIKKACGDPKAKPSYLIDKNLESAVKFIVRKFPAVE”, “failed”; with “MSRTVMCRKYHEELPGLDRPPYPGAKGEDIYNNVSRKAWDEWQKHQTMLINERRLNMMNAEDRKFLQQEMDKFLSGEDYAKADGYVPPSA”, “not failed”.

For the sequence “MSRVSLPHDAKAGPTKPEVRAVLASKLALTGSDHFAEVGSCTGAVTITAARRAGRVTALERKGNRLDVTRKNLAANDVDADVELREAEAPEGLPDDADVLFLGGSRNYEAILDHAVETGVDRIVMNVSRLEVAGAATEAFRERDILEEVVQFQVSHGYELAGATSFNSENPVYMLVGSASEDVAADGGSPTETEATDGGQR”, the protein production result is “failed”. The value for “MSSAIRKAAKGGQCTPNIAGVCNDNPETVVLCRFPGETHGAGLKSGGLGAGFGCGCRRGAIDGRGAGLSREDKEFYMRRSQLRTIRRLEALGVVGVKGRLK” was “failed”; that for “MSSEEDYFDELEYDLADEVNEEKEDIQTKKLTTVNCQTEKFNPFEILPESIELFRTLALISPDRLSLSETAQILPKIVDLKRILQQQEIDFIKLLPFFNEIIPLIKSNIKLMHNFLISLYSRRFPELSSLIPSPLQYSKVISILENENYSKNESDELFFHLENKAKLTREQILVLTMSMKTSFKNKEPLDIKTRTQILEANSILENLWKLQEDIGQYIASKISIIAPNVCFLVGPEIAAQLIAHAGGVLEFSRIPSCNIASIGKNKHLSHELHTLESGVRQEGYLFASDMIQKFPVSVHKQMLRMLCAKVSLAARVDAGQKNGDRNTVLAHKWKAELSKKARKLSEAPSISETKALPIPEDQPKKKRAGRKFRKYKEKFRLSHVRQLQNRMEFGKQEQTVLDSYGEEVGLGMSNTSLQQAVGATSGSRRSAGNQAKLTKVMKHRISEANQQADEFLISLGHNTEQPNLSPEMVQMHKKQHTNPEEETNWFSGHG” was “failed”; that for “MSSEGRNHNWDYAAIGTPEDFLASWSASRGNLRRFFEDHAAAPINDAAQRQAGEAAATQAVAAIYGMELNEFNAGVDAVAGAIESAGAIHVSIPDPDVPQDVGAAAFFDVDNTLIQGSSLIVFAQGLFRKKFFTIKEILPVVWKQVKFKLTGSENAEDVSRGREQALEFIKGRPVQELVDLCEEIVDQRMADKMWPGTKQLADMHIAAGHQVWLVSATPVQLAQILAQRLGFTGAIGTVAEAKDGVFTGRLVGDILHGPGKRHAVAALASIEQLDLTRCTAYSDSINDLPMLSMVGTAVAVNPDSKLRKEAETRGWDVRDFRSIRKATREYGIPALVTAAFSVAGWRLRRRWRKQ” was “failed”. The value for “MSSEKERKKKIFFQRILTVVFLGTFFYSVYELGDIFMDYYENRKVMAEAQNIYEKSPMEEQSQDGEVRKQFKALQQINQEIVGWITMDDTQINYPIVQAKDNDYYLFRNYKGEDMRAGSIFMDYRNDVKSQNRNTILYGHRMKDGSMFGSLKKMLDEEFFMSHRKLYYDTLFEGYDLEVFSVYTTTTDFYYIETDFSSDTEYTSFLEKIQEKSLYKTDTTVTAGDQIVTLSTCDYALDPEAGRLVVHAKLVKRQ” was “not failed”; that for “MSSEMEPLLLAWSYFRRRKFQLCADLCTQMLEKSPYDQAAWILKARALTEMVYIDEIDVDQEGIAEMMLDENAIAQVPRPGTSLKLPGTNQTGGPSQAVRPITQAGRPITGFLRPSTQSGRPGTMEQAIRTPRTAYTARPITSSSGRFVRLGTASMLTSPDGPFINLSRLNLTKYSQKPKLAKALFEYIFHHENDVKTIHLEDVVLHLGIYPFLLRNKNHIEKNALDLAALSTEHSQYKDWWWKVQIGKCYYRLGMYREAEKQFKSALKQQEMVDTFLYLAKVYVSLDQPVTALNLFKQGLDKFPGEVTLLCGIARIYEEMNNMSSAAEYYKEVLKQDNTHVEAIACIGSNHFYSDQPEIALRFYRRLLQMGIYNGQLFNNLGLCCFYAQQYDMTLTSFERALSLAENEEEAADVWYNLGHVAVGIGDTNLAHQCFRLALVNNNNHAEAYNNLAVLEMRKGHVEQARALLQTASSLAPHMYEPHFNFATISDKIGDLQRSYVAAQKSEAAFPDHVDTQHLIKQLRQHFAML” was “failed”. With “MSSENDFVEFSSMFERIIQGRGDGLSRFLPVIVALAAREDDDDQGSTDQTTRRGDPLSPRFVMIGSRSGLDDFFSDGGKQGRSPALKSEVENMPRVVIGEDKEKYGGSCAICLDEWSKGDVAAEMPCKHKFHSKCVEEWLGRHATCPMCRYEMPVEEVEEEKKIGIWIGFSINAGDRRN” the entry was “failed”; with “MSSERDLVNFLGDFSMDVAKAVIAGGVATAIGSLASFACVSFGFPVILVGGAILLTGIVCTVVLNEIDAQCHLSEKLKYAIRDGLKRQQELDKWKRENMTPFMYVLNTPPVI”, “failed”. For the sequence “MSSEYKKGIFLALGAYILWGILPIYWRLIDEIGAFEILAFRIIFSVIFMIFVLIIGKNQRNAFFRDVNQLVSHPVQLIAIIVAGYVITVNWGTFIWAVSNGHVLQSSLGYYINPLVSIVLALIFLKERFNKFEWLAIIFALVGVLYMTIKIGEFPFISLLLAFSFGIYGLLKKIVHIDAISSITIECIVTAPAGLIYVIYLWQQQHITFGLNISSFWLLFSGAITAIPLILFSAGAKRIPLSLTGFIQYVGPTIMFILGIFVFKEPFNTDQLITFIFIWIGIVLYSISQYVQIKKNPVVK”, the protein production result is recorded as “failed”.

On to “MSSHNMTEVLVGGAVLAAALTFGIYASQATGLSRGTGGYELAASFRSLEGVTVGTDVRLAGVKIGTVTGVDLNPESYRADTRFTVSEGIQIPDDSAAVISSEGLLGGNFLEIMPGGSAFYFEPGDVIDDTQGAVSLISLLVKFVAGDGSGELEHHHHHH”, for which the protein production entry is on record as “not failed”. With “MSSKMVKSSEIVGKLNLRAHQEGGFFAETFRDSSVFLSTSQLPPTFKVDRAVSTSIYFLLPSGSVSRLHRIPMAETWHFYLGEPLTVVELYDDGKLKFTCLGPDLFEGDQKPQYTVPPNVWFGSFPTKDVHFSQDGALLKAEARDSENHFSLVGCTCAPAFQFEDFELAKRSDLLSRFPQHESLITMLSYPE” the entry was “failed”; with “MSSKPLYTILTVFNPIFIYFTKRDNLHTLRFKKDRAIKISEELFPDELCERCGRCCILHAYKTEDGIKTIYCEHLDPETKLCKVYKDRFKHRCLTVMEGILAGVFPKDCPYVKNLKNYEEPWFYRHLRDLEHHHHHH”, “failed”.

Regarding “MSSKRPPAPPPPIPGFKYISLLGSGGFSDVYLYEQDRPRRKVAVKVLLSDLKTEGARRRFESEANLMAQLSSHPYIVTIFEAEITETGHSYLAMEYCSRPSLDVRYRRQRFSVDEVLAVGIQVASAVETAHRAGIVHRDIKPANILVTDYNRPALTDFGISGTIGADTEDDAGMSIPWSPPEQFRGGAVDGVPVDIWALGATLYTLLAGRSPFVLPGQDNSQRELISRITNSPLPRLGRADVPESLELVLATSMAKSPESRYSSAHAFALALQRIQAELNLSVTPFEVLEEPGHGDDQHPDDNFEETRVRSIASIDPDASGTATTGSAPTFPARTFPTTATGASGQPTQPQSLPTSRPQPTNPPQTVQSHAGSSAPPQFHAPAPGSYTAPGSYTAPGTYTAPGTYRASGSHNATAEPDTAESTVLRGWQPSRPQDDLGATVSRSNSPAGASPATREDARPADHSKRNLWLAATGAAVLVVAIVVGVVLGAQAQPKVVPTEAASKPPADALGDGSVPDVEGLIGVKDPEKPDFADFRWTNPQPQSGDMYMWRYRTALIPEGDYEAVTEPHARPYFGGEKQLCIQVIIVRRDGTSSPGDTGSIACVDQ”, the protein production entry is recorded as “failed”.
